The results in this text go back to patent publication US20030148417A1.

Common to all, as to assay: cell-based or functional assay
The target in assay [1] is recombinant TcAP2 protein (aspartic endoproteinase from Theobroma cacao, secreted by Yarrowia lipolytica clone pCY330-33) (Theobroma cacao).
Assay [2] has as its target native purified aspartic endoproteinase from cacao beans (TcAP2, 30.5 kDa polypeptide), size exclusion pool #57-64 (Theobroma cacao).
Assay [3] has as its target bovine haemoglobin (bovine) (UniProt P01966).

Sequence of bovine haemoglobin (bovine) (P01966 2-142, chain 1 of 2): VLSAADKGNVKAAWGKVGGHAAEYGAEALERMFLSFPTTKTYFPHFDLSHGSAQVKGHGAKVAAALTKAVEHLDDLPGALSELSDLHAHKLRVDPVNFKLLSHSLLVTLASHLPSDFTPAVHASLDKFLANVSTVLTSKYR
Sequence of bovine haemoglobin (bovine) (P02070 whole entry, chain 2 of 2, further chain): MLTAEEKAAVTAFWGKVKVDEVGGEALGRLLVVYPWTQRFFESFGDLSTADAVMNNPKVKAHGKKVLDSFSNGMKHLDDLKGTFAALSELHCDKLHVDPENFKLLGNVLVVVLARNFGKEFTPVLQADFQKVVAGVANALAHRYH
Sequence of native purified aspartic endoproteinase from cacao beans (TcAP2, 30.5 kDa polypeptide), size exclusion pool #57-64 (Theobroma cacao) (chain, as listed by the source limits assumed, form in doubt): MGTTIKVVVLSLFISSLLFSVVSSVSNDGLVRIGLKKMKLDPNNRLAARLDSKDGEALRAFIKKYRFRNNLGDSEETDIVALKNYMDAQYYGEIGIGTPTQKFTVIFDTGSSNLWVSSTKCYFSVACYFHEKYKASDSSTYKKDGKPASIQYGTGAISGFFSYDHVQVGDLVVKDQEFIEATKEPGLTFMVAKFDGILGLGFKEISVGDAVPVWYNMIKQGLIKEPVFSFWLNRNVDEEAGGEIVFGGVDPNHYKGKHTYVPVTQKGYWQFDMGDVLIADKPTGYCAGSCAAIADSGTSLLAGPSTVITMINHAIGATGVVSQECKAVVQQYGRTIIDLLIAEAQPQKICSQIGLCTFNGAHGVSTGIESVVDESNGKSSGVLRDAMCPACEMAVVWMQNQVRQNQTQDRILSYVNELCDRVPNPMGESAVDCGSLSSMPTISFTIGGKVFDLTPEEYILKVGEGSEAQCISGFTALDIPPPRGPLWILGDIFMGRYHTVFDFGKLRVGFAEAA

On to Pepstatin A (peptide), for which the pepstatin insensitive activity (hydrolysis of bovine haemoglobin, 2 µM pepstatin), percent of uninhibited activity in assay [1] worked out at 6.65%. Further, the Remaining Activity % (hydrolysis of bovine hemoglobin, 0.002 mM Pepstatin A) in assay [2] was 0%.
The substance “recombinant TcAP2 protein (aspartic endoproteinase from Theobroma cacao, secreted by Yarrowia lipolytica clone pCY330-33) (enzyme)” displayed a hydrolysis of bovine haemoglobin, activity at pH 3 without inhibitor (taken as 100%) (pmoles L-leucine produced/min/mg protein) in assay [3] of 28.8.
